Results from patent publication US20250171562A1.
Each block holds one binder with its values, some of them ahead of it.

How the values were obtained:
[1] = biological target: IgE on basophils of allergic donors (human) (UniProt P01854); experiment: cell-based or functional assay
[2] = biological target: mixture of three Der p 2 specific recombinant human IgE clones H10, H12, P4E (human) (UniProt P01854); experiment: RBL-SX38 IgE displacement, FACS
[3] = biological target: IgE on basophils of allergic donors (human) (UniProt P01854); experiment: IgE surface stain on donor basophils after 1 µM sdAb, flow cytometry
[4] = biological target: IgE on basophils of allergic donors (human) (UniProt P01854); experiment: displacement of IgE from FcεRI on basophils, whole blood of an allergic donor, flow cytometry of surface IgE [panel B]
[5] = biological target: IgE on basophils of allergic donors (human) (UniProt P01854); experiment: displacement of IgE from FcεRI on basophils, whole blood of an allergic donor, flow cytometry of surface IgE [panel C]
[6] = biological target: IgE on basophils of allergic donors (human) (UniProt P01854); experiment: IgE surface stain on donor basophils, flow cytometry

mixture of three Der p 2 specific recombinant human IgE clones H10, H12, P4E (human), sequence (P01854 other isoform, or with tags, fused parts or gaps): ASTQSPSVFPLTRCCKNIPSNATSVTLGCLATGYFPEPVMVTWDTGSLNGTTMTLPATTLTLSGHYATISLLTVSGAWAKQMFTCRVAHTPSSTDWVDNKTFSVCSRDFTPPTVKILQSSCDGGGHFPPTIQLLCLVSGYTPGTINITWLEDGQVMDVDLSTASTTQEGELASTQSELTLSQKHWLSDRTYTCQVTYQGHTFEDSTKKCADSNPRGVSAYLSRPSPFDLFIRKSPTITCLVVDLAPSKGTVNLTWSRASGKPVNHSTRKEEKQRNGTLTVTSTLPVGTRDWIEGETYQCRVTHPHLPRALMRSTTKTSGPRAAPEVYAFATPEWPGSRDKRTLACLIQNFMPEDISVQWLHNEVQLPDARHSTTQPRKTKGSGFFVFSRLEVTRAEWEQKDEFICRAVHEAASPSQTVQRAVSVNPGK
IgE on basophils of allergic donors (human), sequence (P01854 1-428): as the sequence (P01854 other isoform, or with tags, fused parts or gaps) above, with K428L counted along it

B2: CIgG4B1A1(G4S3) (Fc fusion)
chain 1: GPPCPPCPAPEFLGGPSVFLFPPKPKDTLMISRTPEVTCVVVDVSQEDPEVQFNWYVDGVEVHNAKTKPREEQFNSTYRVVSVLTVLHQDWLNGKEYKCKVSNKGLPSSIEKTISKAKGQPREPQVYTLPPCQEEMTKNQVSLWCLVKGFYPSDIAVEWESNGQPENNYKTTPPVLDSDGSFFLYSRLTVDKSRWQEGNVFSCSVMHEALHNHYTQKSLSLSLGKGGGGSGGGGSGGGGSQVQLQESGGGLVQTGGSLRLSCAVHGRTFSNTGMGWFRQAPGNERQFVAIISPSGTSTYYADSVKGRFTISRDPAKNTVYLQMNSLKMDDTAVYYCAASYGSNWSTLRHQRRNEYDAWGQGTQVAVS
chain 2: GPPCPPCPAPEFLGGPSVFLFPPKPKDTLMISRTPEVTCVVVDVSQEDPEVQFNWYVDGVEVHNAKTKPREEQFNSTYRVVSVLTVLHQDWLNGKEYKCKVSNKGLPSSIEKTISKAKGQPREPQVCTLPPSQEEMTKNQVSLSCAVKGFYPSDIAVEWESNGQPENNYKTTPPVLDSDGSFFLVSRLTVDKSRWQEGNVFSCSVMHEALHNHYTQKSLSLSLGKGGGGSGGGGSGGGGSEVQLLESGGGLVQPGGSLRLSCAASGFTFGNYDMAWVRQAPGKRPEWVSSIDTGGDITHYADSVKGRFTISRDNAKNTLYLQMNSLRPEDTAVYWCATDEEYALGPNEFDYYGQGTLVTVSS
EC50 [2]: 14.1 nM
Max effect/effect 1 µM [2]: 99%
EC50 (read off the curve) [4]: 6 nM
EC50 (read off the curve) [5]: 4 nM

B4: A2+B1 (protein)
VHH 1: EVQLLESGGGLVQPGGSLRLSCAASGFRFGNYDMAWVRQAPGKRYEWVSSIDTGGDITHYADSVKGRFTISRDNAKNTLYLQMNSLRPEDTAEYWCATDEEYALGPNEFDYYGQGTLVTVS
VHH 2: QVQLQESGGGLVQTGGSLRLSCAVHGRTFSNTGMGWFRQAPGNERQFVAIISPSGTSTYYADSVKGRFTISRDPAKNTVYLQMNSLKMDDTAVYYCAASYGSNWSTLRHQRRNEYDAWGQGTQVAVS
displacement effect on IgE surface expression [6]: 100%

B6: A2+B2 (protein)
VHH 1: B4 VHH 1
VHH 2: QVQLVESGGGLVQAGGSLRLSCAVFGSTFSNNVADWYRQAPGKQRELVARISASGATREYGDSVKGRFTISRDDAKNTMYLQMNNLKPEDTAVYRCHKIEWEDLSRKDYWGQGTQVTVS
displacement effect on IgE surface expression [6]: 100%

B7: A2+B3 (protein)
VHH 1: B4 VHH 1
VHH 2: DVQLQESGGGLVQAGGSLRLSCAASGFIFRLAGMSWVRQAPGKGFEWVSGITMDGSTTNYADSVKGRFTISRDNSKNRLYLQMNSLKPEDTAVYYCARGAKGGYNDPRGQGTQVTVS
displacement effect on IgE surface expression [6]: 70%

Now from value to binder:

fold decrease in rDerp2-induced activation of basophils of a HDM allergic donor (% CD63 pos basophils) [1]: 10 fold
Max effect/effect 1 µM [2]: 40%
displacement effect measured by IgE expression [3]: 16%
B1: sdAb A1 (VHH)
VHH: EVQLLESGGGLVQPGGSLRLSCAASGFTFGNYDMAWVRQAPGKRPEWVSSIDTGGDITHYADSVKGRFTISRDNAKNTLYLQMNSLRPEDTAVYWCATDEEYALGPNEFDYYGQGTLVTVSS

EC50 [2]: 19.5 nM
Max effect/effect 1 µM [2]: 99%
EC50 (read off the curve) [4]: 4 nM
EC50 (read off the curve) [5]: 3 nM
B3: CIgG4B1A1(G4S)2 (Fc fusion)
chain 1: GPPCPPCPAPEFLGGPSVFLFPPKPKDTLMISRTPEVTCVVVDVSQEDPEVQFNWYVDGVEVHNAKTKPREEQFNSTYRVVSVLTVLHQDWLNGKEYKCKVSNKGLPSSIEKTISKAKGQPREPQVYTLPPCQEEMTKNQVSLWCLVKGFYPSDIAVEWESNGQPENNYKTTPPVLDSDGSFFLYSRLTVDKSRWQEGNVFSCSVMHEALHNHYTQKSLSLSLGKGGGGSGGGGSQVQLQESGGGLVQTGGSLRLSCAVHGRTFSNTGMGWFRQAPGNERQFVAIISPSGTSTYYADSVKGRFTISRDPAKNTVYLQMNSLKMDDTAVYYCAASYGSNWSTLRHQRRNEYDAWGQGTQVAVS
chain 2: GPPCPPCPAPEFLGGPSVFLFPPKPKDTLMISRTPEVTCVVVDVSQEDPEVQFNWYVDGVEVHNAKTKPREEQFNSTYRVVSVLTVLHQDWLNGKEYKCKVSNKGLPSSIEKTISKAKGQPREPQVCTLPPSQEEMTKNQVSLSCAVKGFYPSDIAVEWESNGQPENNYKTTPPVLDSDGSFFLVSRLTVDKSRWQEGNVFSCSVMHEALHNHYTQKSLSLSLGKGGGGSGGGGSEVQLLESGGGLVQPGGSLRLSCAASGFTFGNYDMAWVRQAPGKRPEWVSSIDTGGDITHYADSVKGRFTISRDNAKNTLYLQMNSLRPEDTAVYWCATDEEYALGPNEFDYYGQGTLVTVSS

displacement effect on IgE surface expression [6]: 70%
B5: sdAb A2 (VHH)
VHH: B4 VHH 1
